Legend:
HeLa Kyoto [1] = test: solubility in G1/S (NP-40 vs SDS abundance) (log2 ratio); higher = more soluble; conditions: cell cycle stage: G1/S
HeLa Kyoto [2] = test: solubility change mitosis vs G1/S (difference of NP-40 vs SDS log2 ratios) (log2 ratio difference); higher = more soluble in mitosis
HeLa Kyoto [3] = test: melting temperature (median over replicates), in situ; higher = more thermally stable
HeLa Kyoto [4] = test: thermal stability score vs G1/S (z-score of summed log2 fold changes over temperatures); higher = more thermally stable than in G1/S
[5] = cell cycle stage: early G1 (4.5 h after nocodazole release)
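Throughout, for melting temperature (median over replicates), in situ: HeLa Kyoto cells synchronized by double thymidine or nocodazole block, proteins quantified by TMT10plex mass spectrometry, three independent biological replicates.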
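Throughout, for solubility change mitosis vs G1/S (difference of NP-40 vs SDS log2 ratios): synchronized HeLa Kyoto cells (double thymidine block for G1/S, nocodazole release for mitosis), protein amounts in NP-40 versus SDS lysates quantified by mass spectrometry, three biological replicates.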
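Throughout, for solubility in G1/S (NP-40 vs SDS abundance): HeLa Kyoto cells arrested at G1/S by double thymidine block, proteins quantified by TMT10plex mass spectrometry in mild NP-40 versus SDS extracts, three biological replicates.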
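Throughout, for thermal stability score vs G1/S (z-score of summed log2 fold changes over temperatures): synchronized HeLa Kyoto cells, proteins quantified by TMT10plex mass spectrometry, three biological replicates, mitosis taken 0.5 h after nocodazole release, G1/S directly after double thymidine block.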

Sequence | solubility in G1/S (log2) (HeLa Kyoto [1]) | solubility change mitosis (log2) (HeLa Kyoto [2]) | melting temperature (HeLa Kyoto [3]; cell cycle stage: G1/S) | melting temperature (HeLa Kyoto [3]; cell cycle stage: mitosis) | thermal stability score (HeLa Kyoto [4]; [5]) | thermal stability score (HeLa Kyoto [4]; cell cycle stage: mitosis)
MAIQFRSLFPLALPGMLALLGWWWFFSRKKGHVSSHDEQQVEAGAVQLRADPAIKEPLPVEDVCPKVVSTPPSVTEPPEKELSTVSKLPAEPPALLQTHPPCRRSESSGILPNTTDMRLRPGTRRDDSTKLELALTGGEAKSIPLECPLSSPKGVLFSSKSAEVCKQDSPFSRVPRKVQPGYPVVPAEKRSSGERARETGGAEGTGDAVLGEKVLEEALLSREHVLELENSKGPSLASLEGEEDKGKSSSSQVVGPVQEEEYVAEKLPSRFIESAHTELAKDDAAPAPPVADAKAQDRGVEGELGNEESLDRNEEGLDRNEEGLDRNEESLDRNEEGLDRNEEIKRAAFQIISQVISEATEQVLATTVGKVAGRVCQASQLQGQKEESCVPVHQKTVLGPDTAEPATAEAAVAPPDAGLPLPGLPAEGSPPPKTYVSCLKSLLSSPTKDSKPNISAHHISLASCLALTTPSEELPDRAGILVEDATCVTCMSDSSQSVPLVASPGHCSDSFSTSGLEDSCTETSSSPRDKAITPPLPESTVPFSNGVLKGELSDLGAEDGWTMDAEADHSGGSDRNSMDSVDSCCSLKKTESFQNAQAGSNPKKVDLIIWEIEVPKHLVGRLIGKQGRYVSFLKQTSGAKIYISTLPYTQSVQICHIEGSQHHVDKALNLIGKKFKELNLTNIYAPPLPSLALPSLPMTSWLMLPDGITVEVIVVNQVNAGHLFVQQHTHPTFHALRSLDQQMYLCYSQPGIPTLPTPVEITVICAAPGADGAWWRAQVVASYEETNEVEIRYVDYGGYKRVKVDVLRQIRSDFVTLPFQGAEVLLDSVMPLSDDDQFSPEADAAMSEMTGNTALLAQVTSYSPTGLPLIQLWSVVGDEVVLINRSLVERGLAQWVDSYYTSL [AKAP1] | -0.0583 | -0.0592 | 50.3 °C | 50.6 °C | 0.769 | 1.64
MAITLEEAPWLGWLLVKALMRFAFMVVNNLVAIPSYICYVIILQPLRVLDSKRFWYIEGIMYKWLLGMVASWGWYAGYTVMEWGEDIKAVSKDEAVMLVNHQATGDVCTLMMCLQDKGLVVAQMMWLMDHIFKYTNFGIVSLVHGDFFIRQGRSYRDQQLLLLKKHLENNYRSRDRKWIVLFPEGGFLRKRRETSQAFAKKNNLPFLTNVTLPRSGATKIILNALVAQQKNGSPAGGDAKELDSKSKGLQWIIDTTIAYPKAEPIDIQTWILGYRKPTVTHVHYRIFPIKDVPLETDDLTTWLYQRFVEKEDLLSHFYETGAFPPSKGHKEAVSREMTLSNLWIFLIQSFAFLSGYMWYNIIQYFYHCLF [LPGAT1] | -0.142 | -0.152 | 51.1 °C | 51.3 °C | 0.187 | -0.757
MAKAYDHLFKLLLIGDSGVGKTCLIIRFAEDNFNNTYISTIGIDFKIRTVDIEGKKIKLQVWDTAGQERFKTITTAYYRGAMGIILVYDITDEKSFENIQNWMKSIKENASAGVERLLLGNKCDMEAKRKVQKEQADKLAREHGIRFFETSAKSSMNVDEAFSSLARDILLKSGGRRSGNGNKPPSTDLKTCDKKNTNKCSLG [RAB13] | -0.134 | -0.198 | 53.5 °C | 53 °C | -0.483 | -1.07
MAKISSPTETERCIESLIAVFQKYAGKDGYNYTLSKTEFLSFMNTELAAFTKNQKDPGVLDRMMKKLDTNSDGQLDFSEFLNLIGGLAMACHDSFLKAVPSQKRT [S100A11] | -1.04 | 0.343 | 53.8 °C | 52.6 °C | -4.03 | -4.13
MAKLLSCVLGPRLYKIYRERDSERAPASVPETPTAVTAPHSSSWDTYYQPRALEKHADSILALASVFWSISYYSSPFAFFYLYRKGYLSLSKVVPFSHYAGTLLLLLAGVACLRGIGRWTNPQYRQFITILEATHRNQSSENKRQLANYNFDFRSWPVDFHWEEPSSRKESRGGPSRRGVALLRPEPLHRGTADTLLNRVKKLPCQITSYLVAHTLGRRMLYPGSVYLLQKALMPVLLQGQARLVEECNGRRAKLLACDGNEIDTMFVDRRGTAEPQGQKLVICCEGNAGFYEVGCVSTPLEAGYSVLGWNHPGFAGSTGVPFPQNEANAMDVVVQFAIHRLGFQPQDIIIYAWSIGGFTATWAAMSYPDVSAMILDASFDDLVPLALKVMPDSWRGLVTRTVRQHLNLNNAEQLCRYQGPVLLIRRTKDEIITTTVPEDIMSNRGNDLLLKLLQHRYPRVMAEEGLRVVRQWLEASSQLEEASIYSRWEVEEDWCLSVLRSYQAEHGPDFPWSVGEDMSADGRRQLALFLARKHLHNFEATHCTPLPAQNFQMPWHL [ABHD16A] | -0.125 | -0.122 | 51 °C | 51.3 °C | 0.0741 | -0.0149
MAKRNAEKELTDRNWDQEDEAEEVGTFSMASEEVLKNRAIKKAKRRNVGFESDTGGAFKGFKGLVVPSGGGRFSGFGSGAGGKPLEGLSNGNNITSAPPFASAKAAADPKVAFGSLAANGPTTLVDKVSNPKTNGDSQQPSSSGLASSKACVGNAYHKQLAALNCSVRDWIVKHVNTNPLCDLTPIFKDYEKYLANIEQQHGNSGRNSESESNKVAAETQSPSLFGSTKLQQESTFLFHGNKTEDTPDKKMEVASEKKTDPSSLGATSASFNFGKKVDSSVLGSLSSVPLTGFSFSPGNSSLFGKDTTQSKPVSSPFPTKPLEGQAEGDSGECKGGDEEENDEPPKVVVTEVKEEDAFYSKKCKLFYKKDNEFKEKGIGTLHLKPTANQKTQLLVRADTNLGNILLNVLIPPNMPCTRTGKNNVLIVCVPNPPIDEKNATMPVTMLIRVKTSEDADELHKILLEKKDA [NUP50] | 0.204 | 0.0955 | 51.9 °C | 52.8 °C | -1.56 | -1.75
MAKTYDYLFKLLLIGDSGVGKTCLLFRFSEDAFNTTFISTIGIDFKIRTIELDGKKIKLQIWDTAGQERFRTITTAYYRGAMGIMLVYDITNEKSFDNIKNWIRNIEEHASSDVERMILGNKCDMNDKRQVSKERGEKLAIDYGIKFLETSAKSSANVEEAFFTLARDIMTKLNRKMNDSNSAGAGGPVKITENRSKKTSFFRCSLL [RAB8B] | -0.16 | -0.0727 | 55.9 °C | 54 °C | 1.55 | 0.563
MALAARLLPQFLHSRSLPCGAVRLRTPAVAEVRLPSATLCYFCRCRLGLGAALFPRSARALAASALPAQGSRWPVLSSPGLPAAFASFPACPQRSYSTEEKPQQHQKTKMIVLGFSNPINWVRTRIKAFLIWAYFDKEFSITEFSEGAKQAFAHVSKLLSQCKFDLLEELVAKEVLHALKEKVTSLPDNHKNALAANIDEIVFTSTGDISIYYDEKGRKFVNILMCFWYLTSANIPSETLRGASVFQVKLGNQNVETKQLLSASYEFQREFTQGVKPDWTIARIEHSKLLE [C2ORF47] | -0.257 | -0.117 | 53.7 °C | 53.3 °C | 0.0315 | 0.76
MALDGIRMPDGCYADGTWELSVHVTDLNRDVTLRVTGEVHIGGVMLKLVEKLDVKKDWSDHALWWEKKRTWLLKTHWTLDKYGIQADAKLQFTPQHKLLRLQLPNMKYVKVKVNFSDRVFKAVSDICKTFNIRHPEELSLLKKPRDPTKKKKKKLDDQSEDEALELEGPLITPGSGSIYSSPGLYSKTMTPTYDAHDGSPLSPTSAWFGDSALSEGNPGILAVSQPITSPEILAKMFKPQALLDKAKINQGWLDSSRSLMEQDVKENEALLLRFKYYSFFDLNPKYDAIRINQLYEQAKWAILLEEIECTEEEMMMFAALQYHINKLSIMTSENHLNNSDKEVDEVDAALSDLEITLEGGKTSTILGDITSIPELADYIKVFKPKKLTLKGYKQYWCTFKDTSISCYKSKEESSGTPAHQMNLRGCEVTPDVNISGQKFNIKLLIPVAEGMNEIWLRCDNEKQYAHWMAACRLASKGKTMADSSYNLEVQNILSFLKMQHLNPDPQLIPEQITTDITPECLVSPRYLKKYKNKQITARILEAHQNVAQMSLIEAKMRFIQAWQSLPEFGITHFIARFQGGKKEELIGIAYNRLIRMDASTGDAIKTWRFSNMKQWNVNWEIKMVTVEFADEVRLSFICTEVDCKVVHEFIGGYIFLSTRAKDQNESLDEEMFYKLTSGWV [FERMT2] | -0.166 | -0.119 | 54.6 °C | 55.2 °C | -0.389 | 0.267
MALHSMRKARERWSFIRALHKGSAAAPALQKDSKKRVFSGIQPTGILHLGNYLGAIESWVRLQDEYDSVLYSIVDLHSITVPQDPAVLRQSILDMTAVLLACGINPEKSILFQQSQVSEHTQLSWILSCMVRLPRLQHLHQWKAKTTKQKHDGTVGLLTYPVLQAADILLYKSTHVPVGEDQVQHMELVQDLAQGFNKKYGEFFPVPESILTSMKKVKSLRDPSAKMSKSDPDKLATVRITDSPEEIVQKFRKAVTDFTSEVTYDPAGRAGVSNIVAVHAAVTGLSVEEVVRRSAGMNTARYKLAVADAVIEKFAPIKREIEKLKLDKDHLEKVLQIGSAKAKELAYTVCQEVKKLVGFL [WARS2] | 0.308 | -0.0372 | 48.7 °C | 49.2 °C | 0.66 | 0.794
MALPHDSNETSYLLPPNNEDWGRQTIPDFVYGQKDLMAEGIQWPRNAPGIPDALPQSPFDAALCSAWKQRVELGLFRYRLRELQTQILPGAVGFVAQLNVERGVQRRPPQTIKSVRQAFDPVQFNFNKIRPGEVLFRLHREPDLPGTLLQEDILVVINVSPLEWGHVLLVPEPARQLPQRLLPGALRAGIEAVLLSLHPGFRVGFNSLGGLASVNHLHLHGYYLAHRLPVEQAPSEPLDPGGHLHLLQDLPAPGFLFYTRGPGPDLESLISRVCRATDYLTDHEIAHNLFVTRGAPPGKTSPSSALTGVRVILWARKSSFGIKDGEAFNVALCELAGHLPVKTSQDFSSLTEAAAVALIQDCRLPPSQAEDVQAALVALMSQEEQ [GDPGP1] | 0.217 | -0.107 | 52.5 °C | 51 °C | -0.152 | -0.661
MALQVELVPTGEIIRVVHPHRPCKLALGSDGVRVTMESALTARDRVGVQDFVLLENFTSEAAFIENLRRRFRENLIYTYIGPVLVSVNPYRDLQIYSRQHMERYRGVSFYEVPPHLFAVADTVYRALRTERRDQAVMISGESGAGKTEATKRLLQFYAETCPAPERGGAVRDRLLQSNPVLEAFGNAKTLRNDNSSRFGKYMDVQFDFKGAPVGGHILSYLLEKSRVVHQNHGERNFHIFYQLLEGGEEETLRRLGLERNPQSYLYLVKGQCAKVSSINDKSDWKVVRKALTVIDFTEDEVEDLLSIVASVLHLGNIHFAANEESNAQVTTENQLKYLTRLLSVEGSTLREALTHRKIIAKGEELLSPLNLEQAAYARDALAKAVYSRTFTWLVGKINRSLASKDVESPSWRSTTVLGLLDIYGFEVFQHNSFEQFCINYCNEKLQQLFIELTLKSEQEEYEAEGIAWEPVQYFNNKIICDLVEEKFKGIISILDEECLRPGEATDLTFLEKLEDTVKHHPHFLTHKLADQRTRKSLGRGEFRLLHYAGEVTYSVTGFLDKNNDLLFRNLKETMCSSKNPIMSQCFDRSELSDKKRPETVATQFKMSLLQLVEILQSKEPAYVRCIKPNDAKQPGRFDEVLIRHQVKYLGLLENLRVRRAGFAYRRKYEAFLQRYKSLCPETWPTWAGRPQDGVAVLVRHLGYKPEEYKMGRTKIFIRFPKTLFATEDALEVRRQSLATKIQAAWRGFHWRQKFLRVKRSAICIQSWWRGTLGRRKAAKRKWAAQTIRRLIRGFVLRHAPRCPENAFFLDHVRTSFLLNLRRQLPQNVLDTSWPTPPPALREASELLRELCIKNMVWKYCRSISPEWKQQLQQKAVASEIFKGKKDNYPQSVPRLFISTRLGTDEISPRVLQALGSEPIQYAVPVVKYDRKGYKPRSRQLLLTPNAVVIVEDAKVKQRIDYANLTGISVSSLSDSLFVLHVQRADNKQKGDVVLQSDHVIETLTKTALSANRVNSININQGSITFAGGPGRDGTIDFTPGSELLITKAKNGHLAVVAPRLNSR [MYO1C] | -0.972 | -0.0879 | 50.1 °C | 50.2 °C | -1.1 | 3.69
MALRACGLIIFRRCLIPKVDNNAIEFLLLQASDGIHHWTPPKGHVEPGEDDLETALRETQEEAGIEAGQLTIIEGFKRELNYVARNKPKTVIYWLAEVKDYDVEIRLSHEHQAYRWLGLEEACQLAQFKEMKAALQEGHQFLCSIEA [NUDT2] | -0.102 | 0.0921 | 51.7 °C | 51.9 °C | -0.841 | -1.24
